[ ]: non-standard residue; d: D form.
B1: LM609: mouse monoclonal antibody, anti-αvβ3 (antibody, V domains shown)
VH: EVQLEESGGGLVKPGGSLKLSCAASGFAFSSYDMSWVRQIPEKRLEWVAKVSSGGGSTYYLDTVQGRFTISRDNAKNTLYLQMSSLNSEDTAMYYCARHNYGSFAYWGQGTLVTVSA
VL: ELVMTQTPATLSVTPGDSVSLSCRASQSISNHLHWYQQKSHESPRLLIKYASQSISGIPSRFSGSGSGTDFTLSINSVETEDFGMYFCQQSNSWPHTFGGGTKLEIKRA

Assays:
retinal vasculogenesis = assay: newborn mouse model of retinal angiogenesis; format: in vivo
Description: For the model, newborn mice were injected subcutaneously twice daily for four days starting from day 0 with the cyclic peptide RGDfV (SEQ ID NO 4) (also referred to as peptide 203) or the control peptide RADfV (SEQ ID NO 5). On postnatal day five, globes were removed and fixed in 4.0% paraformaldehyde (PFA) at room temperature.
To quantitate mouse retinal angiogenesis, the distance from the optic nerve head to the most distal point of a single vessel selected in each of six equal sectors around a twelve hour clock was measured. The mean distance was calculated and averaged with similar data obtained from an entire litter. To measure the total volume of retinal blood vessels, the entire specimen was scanned in 2.0 μm optical sections and stored digitally. The “seed” function in Bio-Rad's Lasersharp software was then used to threshold and count cubic pixels in each section. A macro was written to sum the volume of all sections and determine the value for all vascular structures.

integrin αIIbβ3 = integrin αIIbβ3 (Homo sapiens, UniProt P05106+P08514); details: cited from earlier work
integrin αvβ3 = integrin αvβ3 (Homo sapiens, UniProt P05106+P06756); details: cited from earlier work
integrin α5β1 = integrin α5β1 (Homo sapiens, UniProt P05556+P08648); details: cited from earlier work
[1] = test system: angiogenesis induced by PMA; assay: chick CAM assay, PMA-induced angiogenesis; format: in vivo; details: PMA 20 ng/ml; antibodies 75 μg per embryo, calphostin C 100 nM
Description: (§1) The above growth factors (cytokines), including bFGF and VEGF, were separately applied at a concentration of 1.0 μg/ml to the 10 day old CAM model as previously described. PMA was used at a concentration of 20 ng/ml.
(§2) After 24 hours after growth factor treatment, the antibodies, LM609 and P1F6, or the protein kinase C (PKC) inhibitor, calphostin C, were separately provided to the CAM model, either by a single intravascular dose as described above or by topical administration as described below in the next example. For intravascular injections over the next 3 day consecutive period, the antibodies were used at a concentration of 75 μg per embryo and the calphostin C was at a dosage of 100 nM.
(§3) On day 13, filter discs and associated CAM tissue were dissected and analyzed for angiogenesis with a stereo microscope. Angiogenesis was scored in a double blind manner by analyzing the number and extent of branching of the blood vessels within the area of the discs. The scores ranged from low (1) to high (4). The angiogenesis index was determined by subtracting a background score of 1 from all data. Experiments were repeated 2–4 times with 5–6 embryos per condition.

[2] = test system: angiogenesis induced by TGF-α; assay: chick CAM assay, TGF-α-induced angiogenesis; format: in vivo; details: TGF-α 1.0 μg/ml; antibodies 75 μg per embryo, calphostin C 100 nM
Description: as §1, §2, §3

[3] = test system: TNF-α mediated angiogenesis; assay: chick CAM assay, TNF-α-induced angiogenesis; format: in vivo; details: TNF-α 1.0 μg/ml; antibodies 75 μg per embryo, calphostin C 100 nM
Description: as §1, §2, §3

Sequence of integrin αvβ3 (P06756 31-889 limits assumed): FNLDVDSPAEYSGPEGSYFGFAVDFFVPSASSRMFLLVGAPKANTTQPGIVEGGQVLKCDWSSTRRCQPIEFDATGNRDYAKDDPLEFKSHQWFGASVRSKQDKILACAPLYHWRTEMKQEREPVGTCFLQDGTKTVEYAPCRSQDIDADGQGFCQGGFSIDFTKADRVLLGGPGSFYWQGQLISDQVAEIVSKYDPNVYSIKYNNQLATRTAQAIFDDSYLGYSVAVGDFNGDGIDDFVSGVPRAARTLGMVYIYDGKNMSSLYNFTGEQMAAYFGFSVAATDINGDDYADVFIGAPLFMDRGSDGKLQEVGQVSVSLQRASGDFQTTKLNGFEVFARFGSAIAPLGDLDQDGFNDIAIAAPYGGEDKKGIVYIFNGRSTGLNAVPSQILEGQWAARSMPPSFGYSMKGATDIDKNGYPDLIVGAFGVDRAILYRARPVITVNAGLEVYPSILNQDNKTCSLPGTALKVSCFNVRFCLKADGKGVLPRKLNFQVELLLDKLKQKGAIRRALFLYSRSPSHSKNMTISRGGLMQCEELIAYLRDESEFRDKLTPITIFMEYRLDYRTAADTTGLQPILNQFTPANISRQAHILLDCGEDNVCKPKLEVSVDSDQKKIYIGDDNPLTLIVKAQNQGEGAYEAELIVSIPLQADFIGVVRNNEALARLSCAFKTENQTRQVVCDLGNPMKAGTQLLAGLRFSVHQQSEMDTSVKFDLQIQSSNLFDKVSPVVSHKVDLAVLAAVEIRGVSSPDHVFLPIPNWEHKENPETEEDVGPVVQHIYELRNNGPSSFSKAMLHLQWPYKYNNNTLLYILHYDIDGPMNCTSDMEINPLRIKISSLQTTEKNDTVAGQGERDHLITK
Sequence of integrin αvβ3 (P06756 891-1048 partner limits assumed): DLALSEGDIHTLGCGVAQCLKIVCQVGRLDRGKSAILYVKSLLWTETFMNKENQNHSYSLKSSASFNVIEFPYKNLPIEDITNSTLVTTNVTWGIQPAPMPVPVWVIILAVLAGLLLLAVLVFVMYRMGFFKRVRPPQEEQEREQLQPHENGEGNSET
Sequence of integrin αvβ3 (P05106 27-788): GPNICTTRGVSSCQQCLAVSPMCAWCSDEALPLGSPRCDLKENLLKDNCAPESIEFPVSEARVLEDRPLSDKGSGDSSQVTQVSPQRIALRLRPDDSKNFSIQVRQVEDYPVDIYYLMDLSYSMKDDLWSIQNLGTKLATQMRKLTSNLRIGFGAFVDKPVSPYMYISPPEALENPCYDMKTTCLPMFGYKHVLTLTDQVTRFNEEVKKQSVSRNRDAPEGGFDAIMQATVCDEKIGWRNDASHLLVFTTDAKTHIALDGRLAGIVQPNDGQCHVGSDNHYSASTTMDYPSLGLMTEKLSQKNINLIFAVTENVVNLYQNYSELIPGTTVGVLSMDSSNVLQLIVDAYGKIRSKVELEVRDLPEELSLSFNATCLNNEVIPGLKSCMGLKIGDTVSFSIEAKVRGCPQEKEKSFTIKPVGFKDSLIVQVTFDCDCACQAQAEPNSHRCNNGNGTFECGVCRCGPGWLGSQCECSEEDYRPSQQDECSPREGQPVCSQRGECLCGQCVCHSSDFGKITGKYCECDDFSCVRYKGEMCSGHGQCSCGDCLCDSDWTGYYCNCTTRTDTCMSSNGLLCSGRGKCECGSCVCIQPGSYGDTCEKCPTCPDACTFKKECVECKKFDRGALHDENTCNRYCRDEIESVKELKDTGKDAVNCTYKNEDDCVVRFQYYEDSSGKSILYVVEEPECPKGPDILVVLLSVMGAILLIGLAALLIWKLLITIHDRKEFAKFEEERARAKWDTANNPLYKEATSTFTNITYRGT
Sequence of integrin α5β1 (P08648 42-894 limits assumed): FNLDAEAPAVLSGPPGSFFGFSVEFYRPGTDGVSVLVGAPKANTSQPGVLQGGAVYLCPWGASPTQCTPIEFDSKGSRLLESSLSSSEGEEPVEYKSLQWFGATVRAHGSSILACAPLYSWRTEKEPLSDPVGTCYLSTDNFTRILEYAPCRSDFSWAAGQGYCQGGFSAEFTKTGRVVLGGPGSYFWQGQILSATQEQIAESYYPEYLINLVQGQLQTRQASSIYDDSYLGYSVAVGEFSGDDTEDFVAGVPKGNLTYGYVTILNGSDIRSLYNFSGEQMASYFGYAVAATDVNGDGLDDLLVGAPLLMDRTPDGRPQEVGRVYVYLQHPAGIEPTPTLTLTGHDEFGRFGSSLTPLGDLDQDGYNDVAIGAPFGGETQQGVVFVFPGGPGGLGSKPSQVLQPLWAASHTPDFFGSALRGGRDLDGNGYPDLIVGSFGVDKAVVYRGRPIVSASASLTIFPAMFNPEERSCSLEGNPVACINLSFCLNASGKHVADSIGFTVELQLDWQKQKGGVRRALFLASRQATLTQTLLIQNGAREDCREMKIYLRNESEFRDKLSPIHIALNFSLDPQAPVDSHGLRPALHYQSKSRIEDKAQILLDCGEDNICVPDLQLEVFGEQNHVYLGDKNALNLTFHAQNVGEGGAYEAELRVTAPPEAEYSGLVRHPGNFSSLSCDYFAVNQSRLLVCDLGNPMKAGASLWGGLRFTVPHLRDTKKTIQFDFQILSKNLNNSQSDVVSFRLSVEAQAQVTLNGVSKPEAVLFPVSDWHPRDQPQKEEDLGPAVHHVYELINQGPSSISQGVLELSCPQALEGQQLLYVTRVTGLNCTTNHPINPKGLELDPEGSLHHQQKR
Sequence of integrin α5β1 (P08648 895-1049 partner limits assumed): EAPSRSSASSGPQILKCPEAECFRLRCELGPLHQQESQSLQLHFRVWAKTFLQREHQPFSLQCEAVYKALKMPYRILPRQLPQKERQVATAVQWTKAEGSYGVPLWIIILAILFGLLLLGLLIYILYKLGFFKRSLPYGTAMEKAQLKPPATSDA
Sequence of integrin α5β1 (P05556 21-798): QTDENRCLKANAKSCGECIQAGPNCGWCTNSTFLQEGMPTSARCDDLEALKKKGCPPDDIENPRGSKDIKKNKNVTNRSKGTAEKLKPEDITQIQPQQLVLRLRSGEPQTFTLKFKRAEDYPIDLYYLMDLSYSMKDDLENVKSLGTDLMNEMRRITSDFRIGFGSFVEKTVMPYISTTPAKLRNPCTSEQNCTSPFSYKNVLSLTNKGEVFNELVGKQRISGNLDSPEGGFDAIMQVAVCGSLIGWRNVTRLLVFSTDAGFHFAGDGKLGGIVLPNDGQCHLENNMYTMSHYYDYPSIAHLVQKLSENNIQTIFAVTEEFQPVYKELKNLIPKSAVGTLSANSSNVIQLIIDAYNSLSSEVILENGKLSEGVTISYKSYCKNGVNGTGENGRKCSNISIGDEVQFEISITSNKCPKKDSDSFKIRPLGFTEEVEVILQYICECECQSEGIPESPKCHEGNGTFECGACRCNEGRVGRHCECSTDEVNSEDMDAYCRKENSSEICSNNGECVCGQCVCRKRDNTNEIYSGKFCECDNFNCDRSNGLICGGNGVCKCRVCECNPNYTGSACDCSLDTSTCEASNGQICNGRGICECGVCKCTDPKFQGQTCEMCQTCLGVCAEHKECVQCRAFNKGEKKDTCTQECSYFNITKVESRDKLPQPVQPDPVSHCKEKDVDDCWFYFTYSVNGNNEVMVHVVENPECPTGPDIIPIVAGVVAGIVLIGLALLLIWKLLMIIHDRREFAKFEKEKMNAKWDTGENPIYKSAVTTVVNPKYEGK

Molecule	mean volume of retinal vessels (retinal vasculogenesis; postnatal day five)	difference in vessel growth between untreated five-day old mice and same aged treated mice (retinal vasculogenesis; two dimensions)	inhibition of binding of fibrinogen to integrin αIIbβ3 (integrin αIIbβ3)	inhibition of binding of fibrinogen to integrin αvβ3 (integrin αvβ3)	inhibition of binding of fibrinogen to integrin α5β1 (integrin α5β1)	effect on CAM angiogenesis induced by PMA (angiogenesis index) [1]	effect on CAM angiogenesis induced by TGF-α (angiogenesis index) [2]	effect on CAM angiogenesis in response to TNF-α (angiogenesis index) [3]
cyclo(Arg-Ala-Asp-D-Phe-Val) (cyclo(RAD[dF]V); SMILES CC(C)[C@@H]1NC(=O)[C@@H](Cc2ccccc2)NC(=O)[C@H](CC(=O)O)NC(=O)[C@H](C)NC(=O)[C@H](CCCNC(=N)N)NC1=O) [peptide 69601, reference compound]	15.7×10^6 μm^3	no statistical difference	not inhibit binding	inhibiting binding	not inhibit binding	–	–	–
B1	–	–	–	–	–	failed to do so	failed to do so	blocked angiogenesis

From patent publication US7053041B1, “Methods and compositions useful for inhibition of αvβ5mediated angiogenesis” (The Scripps Research Institute, priority 1996, dated 2006)
